{"source": "patent US7737158B2", "about": "“Processes for regulating blood glucose in a mammal” (Washington University, priority 2005, dated 2010)", "molecules": {"B1": {"name": "intracellular Nampt-FLAG® from NIH3T3 cells: FLAG-tagged mouse Nampt immunoprecipitated from NIH3T3 cellular extracts (protein, UniProt Q99KQ4 1-491, looked up)", "Nicotinamide …": "MNAAAEAEFNILLATDSYKVTHYKQYPPNTSKVYSYFECREKKTENSKVRKVKYEETVFYGLQYILNKYLKGKVVTKEKIQEAKEVYREHFQDDVFNERGWNYILEKYDGHLPIEVKAVPEGSVIPRGNVLFTVENTDPECYWLTNWIETILVQSWYPITVATNSREQKKILAKYLLETSGNLDGLEYKLHDFGYRGVSSQETAGIGASAHLVNFKGTDTVAGIALIKKYYGTKDPVPGYSVPAAEHSTITAWGKDHEKDAFEHIVTQFSSVPVSVVSDSYDIYNACEKIWGEDLRHLIVSRSTEAPLIIRPDSGNPLDTVLKVLDILGKKFPVTENSKGYKLLPPYLRVIQGDGVDINTLQEIVEGMKQKKWSIENVSFGSGGALLQKLTRDLLNCSFKCSYVVTNGLGVNVFKDPVADPNKRSKKGRLSLHRTPAGNFVTLEEGKGDLEEYGHDLLHTVFKNGKVTKSYSFDEVRKNAQLNIEQDVAPH", "modifications": "FLAG tag", "notes": "FLAG-tagged mouse Nampt immunoprecipitated from NIH3T3 cellular extracts"}, "B2": {"name": "intracellular Nampt-FLAG® from differentiated HIB-1B cells: FLAG-tagged mouse Nampt immunoprecipitated from differentiated HIB-1B cellular extracts (protein, UniProt Q99KQ4 1-491, looked up)", "Nicotinamide …": "B1 Nicotinamide …", "modifications": "FLAG tag", "notes": "FLAG-tagged mouse Nampt immunoprecipitated from differentiated HIB-1B cellular extracts"}, "B3": {"name": "extracellular Nampt: Extracellular Nampt from HIB-1B culture supernatants (protein)", "chain": "B1 Nicotinamide …"}, "B4": {"name": "extracellular Nampt-FLAG®: C-terminally FLAG-tagged mouse Nampt (SEQ ID NO:7) secreted from differentiated HIB-1B cells, immunoprecipitated from culture supernatants (protein)", "chain": "MNAAAEAEFNILLATDSYKVTHYKQYPPNTSKVYSYFECREKKTENSKVRKVKYEETVFYGLQYILNKYLKGKVVTKEKIQEAKEVYREHFQDDVFNERGWNYILEKYDGHLPIEVKAVPEGSVIPRGNVLFTVENTDPECYWLTNWIETILVQSWYPITVATNSREQKKILAKYLLETSGNLDGLEYKLHDFGYRGVSSQETAGIGASAHLVNFKGTDTVAGIALIKKYYGTKDPVPGYSVPAAEHSTITAWGKDHEKDAFEHIVTQFSSVPVSVVSDSYDIYNACEKIWGEDLRHLIVSRSTEAPLIIRPDSGNPLDTVLKVLDILGKKFPVTENSKGYKLLPPYLRVIQGDGVDINTLQEIVEGMKQKKWSIENVSFGSGGALLQKLTRDLLNCSFKCSYVVTNGLGVNVFKDPVADPNKRSKKGRLSLHRTPAGNFVTLEEGKGDLEEYGHDLLHTVFKNGKVTKSYSFDEVRKNAQLNIEQDVAPHGGDYKDDDDK", "modifications": "C-terminal FLAG tag; Nampt-FLAG (tm) protein"}, "B5": {"name": "Nmnat: Bacterially produced, His-tagged recombinant mouse nicotinamide/nicotinic acid mononucleotide adenylyltransferase (protein, UniProt Q9EPA7 1-285, looked up)", "Nicotinamide/nicotinic acid …": "MDSSKKTEVVLLACGSFNPITNMHLRLFELAKDYMHATGKYSVIKGIISPVGDAYKKKGLIPAHHRIIMAELATKNSHWVEVDTWESLQKEWVETVKVLRYHQEKLATGSCSYPQSSPALEKPGRKRKWADQKQDSSPQKPQEPKPTGVPKVKLLCGADLLESFSVPNLWKMEDITQIVANFGLICITRAGSDAQKFIYESDVLWRHQSNIHLVNEWITNDISSTKIRRALRRGQSIRYLVPDLVQEYIEKHELYNTESEGRNAGVTLAPLQRNAAEAKHNHSTL", "modifications": "His tag", "notes": "Bacterially produced, His-tagged recombinant mouse nicotinamide/nicotinic acid mononucleotide adenylyltransferase"}}, "key": {"[1]": {"target": "mouse Nampt (Mus musculus, UniProt Q99KQ4)", "assay": "Enzyme-coupled fluorometric assay of immunoprecipitated Nampt-FLAG and recombinant Nampt", "type": "biochemical", "parameters": "expressed in transfected cells; host or cells: mouse NIH3T3 fibroblasts and mouse HIB-1B preadipocytes (differentiated), stably transfected with pCXN2-Nampt-FLAG; cell extracts or culture supernatant, anti-FLAG immunoprecipitates", "settings": "for kcat: NMN synthesis, 55 min at 37° C., pH8.5, Nampt amount quantified by Western blotting", "method": "For immunoprecipitation of intracellular Nampt, whole cell extracts were prepared with ice-cold immunoprecipitation (IP) buffer (phosphate buffer saline [pH 7.4], 0.5% NP-40, 1 mM EDTA,1 mM NaF, 10 μM Trichostatin A, 10 mM nicotinamide, 0.5 mM DTT, protease inhibitor cocktail (Roche)) and mixed with agarose beads conjugated with the mouse monoclonal M2 anti-FLAG antibody (F2426, Sigma) for 3-4 hours at 4° C. For immunoprecipitation of extracellular Nampt, HIB-1B culture supernatants were collected after incubating differentiated HIB-1B cells overnight with DMEM without fetal bovine serum but supplemented with 1 μg/ml insulin and 1 nM triodothyronine, filtered through a 0.22-μm PES membrane, concentrated with Amicon Ultra-15 columns (Millipore, MA), and mixed with anti-FLAG beads for 3-4 hours at 4° C. Immunoprecipitates were washed twice with the IP buffer and twice with PBS.\nImmunoprecipitates on anti-FLAG beads were incubated in enzymatic reaction buffer (50 mM Tris-HCl (pH8.5), 100 mM NaCl, 0.25 mM Nicotinamide, 10 mM MgSO4, 1.5% Ethanol, 0.5 mM PRPP, 2.0 mM ATP) for 55 min at 37° C. After this reaction, mouse recombinant nicotinamide mononucleotide adenylyltransferase and yeast alcohol dehydrogenase (Sigma) were added at 10 μg/ml as the final concentration for each, and the mixture was incubated for 5 min at 37° C. Supernatants were then collected by spinning down anti-FLAG beads, and autofluorescence of NADH was measured in a Perkin Elmer LS 50B fluorometer (excitation: 340 nm; emission: 460 nm). Immunoprecipitates bound on anti-FLAG beads were extracted with Laemmli's sample buffer, boiled for 5 minutes, and analyzed by Western blotting with anti-Nampt antibodies. The amounts of Nampt used for enzymatic reactions were quantitated compared to the standards of mouse recombinant Nampt.\nThe immunoprecipitates from the HIB-1B culture supernatants were subjected to enzyme-coupled fluorometric assays (see Revollo et al., J. Biol. Chem., (2004)279, 50754-50763) to compare enzymatic activity of the intracellular and extracellular forms of Nampt. […] The Nampt enzymatic activity of the bacterially produced recombinant Nampt and the intracellular Nampt-FLAG® immunoprecipitated from HIB-1B and NIH3T3 cellular extracts were also measured and their kcat values calculated (see FIG. 16E). […] It is believed that a post-translational modification may be responsible for the altered enzymatic activity of extracellular Nampt produced by brown adipocytes. […] Despite the extensive mass spectrometric analysis of extracellular Nampt, the precise nature of the modification is currently unknown. Taken together, these findings provide strong evidence that Nampt functions as an NAD biosynthetic enzyme both intra- and extracellularly."}, "[2]": {"target": "T1, mouse Nmnat (Mus musculus, UniProt Q9EPA7)", "T1 construct": "Polyclonal rabbit antisera were produced against the purified full-length His-tagged Nampt and Nmnat recombinant proteins; made in house; host or cells: E. coli BL21(DE3)pLysS", "assay": "Enzyme-coupled fluorometric assay, kinetic characterization of recombinant Nmnat", "type": "biochemical", "method": "Enzymatic activities of recombinant Nampt and Nmnat proteins were measured by an enzyme-coupled fluorometric assay (see, e.g., FIG. 4B). In this enzyme-coupled reaction, NAD is converted to NADH by alcohol dehydrogenase, and the fluorescence of NADH is detected in a fluorometer. To establish this assay system, optimal reaction conditions for Nmnat were initially examined by varying ATP and Mg^2+ concentrations and pH of the reaction buffer. The resultant reaction buffer for Nmnat contained 50 mM HEPES [pH 7.4], 0.02% BSA, 12 mM MgCl2, 2 mM ATP, 1.5% ethanol, and 30 μg/ml alcohol dehydrogenase to convert NAD to NADH. To determine the kinetic parameters for Nmnat, 30 ng of purified His-tagged Nmnat and varying concentrations of NMN were added to 1 ml of the reaction buffer. The reactions were run at 37° C. and quenched at six time points by the addition of 250 μl of 0.5 M EDTA. The production of NADH was measured by excitation at 340 nm and emission at 460 nm in a fluorometer. For kinetic characterization of Nampt, 500 ng of His-tagged Nampt and varying concentrations of nicotinamide were reacted at 37° C. in 100 μl of a buffer containing 50 mM Tris-HCl [pH 7.5], 0.02% BSA, 12 mM MgCl2, 2.5 mM ATP, 10 μg/ml His-tagged Nmnat, 0.4 mM phosphoribosyl pyrophosphate (PRPP), 1.5% ethanol, and 30 μg/ml alcohol dehydrogenase. NADH production was measured continuously in a fluorometer.\nBy using this enzyme-coupled fluorometric assay, kinetic parameters of purified recombinant mouse Nampt and Nmnat for nicotinamide and NMN, respectively, were determined (see, e.g., Table 1). The Lineweaver-Burk plots for these two enzymes are shown, for example, in FIGS. 11A and 11B. […] The Km and Vmax of mouse Nmnat are consistent with previously reported values for human NMNAT-1 (Emanuelli et al., J. Biol. Chem. (2001) 276, 406-412)."}, "[3]": {"settings": "purified His-tagged recombinant mouse Nmnat, substrate NMN"}}, "note": "“Also recorded” adds a separate entry of the source."}
{"molecule": "B1", "values": [{"measurement": "kcat", "setting": "[1]", "value": 0.082, "unit": "s⁻¹"}]}
{"molecule": "B2", "values": [{"measurement": "kcat", "setting": "[1]", "value": 0.182, "unit": "s⁻¹"}]}
{"molecule": "B3", "values": [{"measurement": "enzymatic activity after treatment with calf intestinal phosphatase (CIP)", "setting": "[1]; extracellular Nampt from HIB-1B culture supernatants", "value": "did not change"}]}
{"molecule": "B4", "values": [{"measurement": "kcat", "setting": "[1]", "value": 0.380, "unit": "s⁻¹"}, {"measurement": "Nampt enzymatic activity", "setting": "[1]; immunoprecipitated from culture supernatants of differentiated HIB-1B cells", "value": "Robust activity; also recorded: has Nampt enzymatic activity"}, {"measurement": "kcat of extracellular Nampt-FLAG, fold higher than recombinant Nampt", "setting": "[1]; versus bacterially produced recombinant Nampt", "value": "~11", "unit": "fold"}, {"measurement": "kcat of extracellular Nampt-FLAG, fold higher than intracellular Nampt-FLAG from NIH3T3 cells", "setting": "[1]; versus intracellular Nampt-FLAG from NIH3T3 cells", "value": "~5", "unit": "fold"}, {"measurement": "kcat of extracellular Nampt-FLAG, fold higher than intracellular Nampt-FLAG from differentiated HIB-1B cells", "setting": "[1]; versus intracellular Nampt-FLAG from differentiated HIB-1B cells", "value": "~2", "unit": "fold"}]}
{"molecule": "B5", "values": [{"measurement": "synthesis of NAD from NMN and ATP", "setting": "[2]; isolated reactions", "value": "catalyzed the synthesis of NAD"}, {"measurement": "Vmax", "setting": "[2]; [3]", "value": 31.4, "unit": "µmol/min/mg"}, {"measurement": "kcat", "setting": "[2]; [3]", "value": 20.0, "unit": "s⁻¹"}, {"measurement": "Km", "setting": "[2]; purified His-tagged recombinant mouse Nmnat, substrate NMN, 37° C.", "value": 20.1, "unit": "µM"}]}
